As a reminder, the EC50 is the concentration needed to bring the measured effect to its halfway point. Low readings indicate an effect from little substance, high ones a need for much substance. The Kd is the equilibrium constant for the complex coming apart. Higher therefore signals weaker binding. What is called koff is the first-order rate constant of dissociation. Low readings indicate slow dissociation, high ones fast dissociation. What is called kon is the rate constant with which the complex forms. A higher kon goes with faster complex formation.

Substitutions are numbered along the chain they refer to.

Data on six molecules can be found in patent publication US20250179200A1 (UNIVERSITY OF CHICAGO, published 2025).

In test [1] the target is T1, Growth Hormone Receptor (GHR) immobilized on a high binding plate (UniProt P10912 19-264, limits assumed).
T1 sequence (looked up): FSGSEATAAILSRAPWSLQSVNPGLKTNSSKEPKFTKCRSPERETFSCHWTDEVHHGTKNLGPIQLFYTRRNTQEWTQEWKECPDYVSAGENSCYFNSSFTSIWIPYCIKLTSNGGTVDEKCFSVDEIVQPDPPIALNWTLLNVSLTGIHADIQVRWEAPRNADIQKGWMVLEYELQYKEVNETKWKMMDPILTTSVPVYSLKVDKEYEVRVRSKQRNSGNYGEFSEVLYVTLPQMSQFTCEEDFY
Kind of test: competition ELISA: Fab titrated on plate-bound GHR preincubated with 200 nM GH (the legend of 6A names B2036), anti-human Fab-HRP. The protocol: 200 nM of GHR was immobilized on a 96-well high binding plate (Geiner Bio) and blocked with 5% BSA overnight. […] The Fab binding to GHR was detected using HRP-conjugated anti-human (Fab)2 antibody (Jackson ImmunoResearch, 1:5000 dilution in PBST), and the signal was developed with TMB substrate.
(An ELISA detects its analyte on a solid surface through an enzyme-linked reagent.)

Test [2] addresses T2, Pig GHR_Fc with 10x His-tag (pig, UniProt P19756 19-264, limits assumed).
T2 construct: not shown: Fc domain and 10x His-tag
T2 sequence (looked up): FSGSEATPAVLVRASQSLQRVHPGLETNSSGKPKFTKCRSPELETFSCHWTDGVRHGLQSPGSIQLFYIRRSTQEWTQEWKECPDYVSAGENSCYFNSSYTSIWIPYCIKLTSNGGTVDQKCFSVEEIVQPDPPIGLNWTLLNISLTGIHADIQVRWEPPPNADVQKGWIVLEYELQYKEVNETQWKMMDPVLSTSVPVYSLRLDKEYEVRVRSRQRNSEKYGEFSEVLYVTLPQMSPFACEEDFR
Kind of test: SPR, GHR_Fc-10xHis on Ni-NTA chip, Fab in 2-fold dilutions from 50 nM, 1:1 fit. The protocol: (§1) Surface plasmon resonance (SPR) measurements were conducted in a MASS-1 (Bruker) instrument. The target GHR-Fc (50 nM) with a 10× His-tag was captured in a Ni-NTA sensor chip. […] Flow rate was 30 ul/min and temperature 20° C. Sensograms were corrected through double referencing and fitting was done with a 1:1 binding model using the Sierra Analyzer (Bruker). For epitope binning experiments, the first FAB was injected at saturating concentrations (200 nM), followed by injection a second FAB in equal molar mixture with the first FAB, and the response unit (RU) was recorded.
(§2) Target GHR_Fc (from different species) were immobilized via a 10× His-tag to a Ni-NTA sensor chip. […] Sensograms were corrected through double referencing and 1:1 binding model fit was done using Sierra Analyzer (Bruker). To reveal different epitopes on GHR, the epitope binning experiment was performed.
In general terms: SPR reads the build-up and loss of mass on a sensor chip optically.

In test [3] the target is T3, Murine GHR_Fc with 10x His-tag (murine, UniProt P16882 25-273, limits assumed).
T3 construct: not shown: Fc domain and 10x His-tag
T3 sequence (looked up): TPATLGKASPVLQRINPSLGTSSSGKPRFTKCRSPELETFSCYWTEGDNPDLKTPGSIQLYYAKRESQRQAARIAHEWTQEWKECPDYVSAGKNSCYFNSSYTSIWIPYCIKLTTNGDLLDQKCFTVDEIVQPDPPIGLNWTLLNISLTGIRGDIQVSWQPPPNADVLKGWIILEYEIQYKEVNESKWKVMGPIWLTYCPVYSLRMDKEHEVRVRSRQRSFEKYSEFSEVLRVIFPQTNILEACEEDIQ
The description is as above. The protocol:
as §1, §2

Test [4] concerns the target T4, Human GHR-Fc-10x His (extracellular region of human growth hormone receptor fused to human Fc) (human, UniProt P10912 50-256).
T4 construct: Captured by its 10x His-tag on a Ni-NTA sensor chip for SPR; not shown: human Fc domain of vector pAB1200 with its linker; 10x His-tag replacing the AviTag
T4 sequence (looked up): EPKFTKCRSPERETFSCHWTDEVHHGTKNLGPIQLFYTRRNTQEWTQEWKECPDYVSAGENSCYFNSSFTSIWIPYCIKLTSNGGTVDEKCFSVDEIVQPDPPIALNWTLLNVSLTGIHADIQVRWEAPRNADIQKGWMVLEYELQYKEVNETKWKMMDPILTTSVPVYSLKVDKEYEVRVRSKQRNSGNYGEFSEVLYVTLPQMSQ
The description is as above. The protocol:
as §1, §2

The target of test [5] is T5, Rabbit GHR_Fc with 10x His-tag (rabbit, UniProt P19941 19-264, limits assumed).
T5 construct: not shown: Fc domain and 10x His-tag
T5 sequence (looked up): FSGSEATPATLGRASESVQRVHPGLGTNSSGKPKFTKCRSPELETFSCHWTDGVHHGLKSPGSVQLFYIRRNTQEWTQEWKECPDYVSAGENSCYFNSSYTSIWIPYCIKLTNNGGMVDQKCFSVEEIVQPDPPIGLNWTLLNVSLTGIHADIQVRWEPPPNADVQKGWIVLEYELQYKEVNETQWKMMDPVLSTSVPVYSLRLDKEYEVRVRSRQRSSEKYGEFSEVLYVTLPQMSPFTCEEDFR
The description is as above. The protocol: as §1, §2

Test [6] has as its target T6, Cyno GHR_Fc with 10x His-tag (Cyno, UniProt A0A2K5WH01 19-262).
T6 construct: not shown: Fc domain and 10x His-tag
T6 sequence: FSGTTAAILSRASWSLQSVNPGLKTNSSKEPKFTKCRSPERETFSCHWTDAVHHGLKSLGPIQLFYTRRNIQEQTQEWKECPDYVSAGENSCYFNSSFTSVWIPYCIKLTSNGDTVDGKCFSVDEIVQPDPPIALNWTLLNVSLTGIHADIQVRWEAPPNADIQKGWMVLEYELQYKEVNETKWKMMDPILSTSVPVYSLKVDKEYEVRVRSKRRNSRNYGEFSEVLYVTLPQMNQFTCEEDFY
Described as above. The protocol:
as §1, §2

The target of test [7] is T7, Rat GHR_Fc with 10x His-tag (rat, UniProt P16310 19-265, limits assumed).
T7 construct: not shown: Fc domain and 10x His-tag
T7 sequence (looked up): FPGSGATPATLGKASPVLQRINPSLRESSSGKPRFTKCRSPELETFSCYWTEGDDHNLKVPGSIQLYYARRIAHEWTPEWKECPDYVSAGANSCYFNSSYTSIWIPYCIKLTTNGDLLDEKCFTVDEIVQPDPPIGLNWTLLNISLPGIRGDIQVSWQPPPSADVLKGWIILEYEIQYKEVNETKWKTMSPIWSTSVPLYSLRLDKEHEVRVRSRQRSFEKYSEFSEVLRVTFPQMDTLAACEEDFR
Described as above. The protocol:
as §1, §2

Test [8] concerns the target T4, Human GHR-Fc-10x His (extracellular …). Kind of test: SPR, GHR-Fc-10xHis captured on Ni-NTA chip, Fab as analyte, 1:1 fit. The protocol: as §1, §2

B1: GHR3 Fab (Fab, V domains shown)
VH: EVQLVESGGGLVQPGGSLRLSCAASGFNVSYYSIHWVRQAPGKGLEWVAYISPSYGSTSYADSVKGRFTISADTSKNTAYLQMNSLRAEDTAVYYCARGYWGGGYWPYHAFDYWGQGTLVTVSS
VL: DIQMTQSPSSLSASVGDRVTITCRASQSVSSAVAWYQQKPGKAPKLLIYSASSLYSGVPSRFSGSRSGTDFTLTISSLQPEDFATYYCQQYYTSLLTFGQGTKVEIKR
Consider B1, for which the EC50 in test [1] amounted to 26 nM.

B2: GHR_TS40 Fab (Fab, V domains shown)
VH: EVQLVESGGGLVQPGGSLRLSCAASGFNVSYYYIHWVRQAPGKGLEWVASIYPSSGYTSYADSVKGRFTISADTSKNTAYLQMNSLRAEDTAVYYCARYYWPASYWSGYSALDYWGQGTLVTVSS
VL: B1 VL with Y92P, T93W, S94G, L96I
In the case of B2, in test [1], a half-maximal response (EC50) required 132 nM.

B3: GHR_TS23 Fab (Fab, V domains shown)
VH: EVQLVESGGGLVQPGGSLRLSCAASGFNFYYSSIHWVRQAPGKGLEWVASIYSYSGSTSYADSVKGRFTISADTSKNTAYLQMNSLRAEDTAVYYCARQYWYYGGYFYYGIDYWGQGTLVTVSS
VL: B1 VL with Y92W, T93S, S94T, L96I
B3: in test [1], the EC50 came out at 3.5 nM.

B4: GHR_TS10 Fab (Fab, V domains shown)
VH: EVQLVESGGGLVQPGGSLRLSCAASGFNFSSSYIHWVRQAPGKGLEWVAYISPSSGYTSYADSVKGRFTISADTSKNTAYLQMNSLRAEDTAVYYCARQYYGGWYGFGMDYWGQGTLVTVSS
VL: B1 VL with Y91W, Y92H, T93S, S94Y, L96I
Take B4: it took 3.5 nM to reach a half-maximal effect in test [1] (EC50).

B5: GHR_TS23 Fab (Fab, V domains shown)
VH: B3 VH
VL: B1 VL with Y92W, T93S, S94T, L96I
notes: Fab from the cross-species phage display selection
For the molecule B5, the Kd in test [2] turned out to be 1.8 nM; in test [3], 7.8 nM; in test [4], 0.2 nM; in test [5], 2.5 nM; in test [6], 1.3 nM; in test [7], 8.2 nM. For the same molecule, the koff in test [2] came to 0.0012 s⁻¹; in test [3] it was 0.0051 s⁻¹; in test [4] it was 0.00017 s⁻¹; in test [5], 0.0014 s⁻¹; in test [6], 0.00038 s⁻¹; in test [7], 0.0031 s⁻¹. Moreover, the association rate constant (kon) in test [2] was found to be 670000 M⁻¹ s⁻¹; in test [3], 660000 M⁻¹ s⁻¹; in test [4] it was 830000 M⁻¹ s⁻¹; in test [5], 560000 M⁻¹ s⁻¹; in test [6], 300000 M⁻¹ s⁻¹; in test [7] it was 370000 M⁻¹ s⁻¹.

B6: GHR15 Fab (Fab, V domains shown)
VH: EVQLVESGGGLVQPGGSLRLSCAASGFNVSSSSIHWVRQAPGKGLEWVASIYSYYGYTSYADSVKGRFTISADTSKNTAYLQMNSLRAEDTAVYYCARSSGYHGWYWNGMDYWGQGTLVTVSS
VL: DIQMTQSPSSLSASVGDRVTITCRASQSVSSAVAWYQQKPGKAPKLLIYSASSLYSGVPSRFSGSRSGTDFTLTISSLQPEDFATYYCQQWYGMSLVTFGQGTKVEIKR
notes: Fab
In the case of B6, in test [8], the dissociation constant (Kd) is less than 1 nM, the koff is 0.000131 s⁻¹ and the kon was found to be 170000 M⁻¹ s⁻¹.
